T1: FcγRIIB (form not stated) (UniProt P31994 43-217, limits assumed)
T1 construct: also called FcγRIIB (ELISA)
T1 sequence (looked up): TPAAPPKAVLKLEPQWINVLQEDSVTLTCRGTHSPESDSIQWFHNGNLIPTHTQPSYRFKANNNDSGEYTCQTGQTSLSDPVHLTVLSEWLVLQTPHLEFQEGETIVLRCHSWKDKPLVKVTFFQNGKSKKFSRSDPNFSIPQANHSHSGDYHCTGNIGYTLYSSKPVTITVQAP


Legend:
[1] = molecular target: T1, FcγRIIB (form not stated); experiment: ELISA
[2] = molecular target: T2, FcγRIIIA (form not stated) (UniProt P08637 17-208, limits assumed); experiment: ELISA
T2 construct: also called FcγRIIIA (ELISA)
T2 sequence (P08637 17-208 F176V limits assumed, form in doubt): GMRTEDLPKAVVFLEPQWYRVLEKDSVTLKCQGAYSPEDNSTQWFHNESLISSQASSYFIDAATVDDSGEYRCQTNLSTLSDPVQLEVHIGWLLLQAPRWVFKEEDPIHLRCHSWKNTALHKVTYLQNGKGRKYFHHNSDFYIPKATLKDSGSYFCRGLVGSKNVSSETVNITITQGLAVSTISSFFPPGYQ

Binder	binding result [1]	fold increase vs WT [2]	fold increase vs WT [1]	fold decrease vs WT [1]	fold vs WT [2]
ch4-4-20 F275I, K334N, V348M (antibody) heavy: ASTKGPSVFPLAPSSKSTSGGTAALGCLVKDYFPEPVTVSWNSGALTSGVHTFPAVLQSSGLYSLSSVVTVPSSSLGTQTYICNVNHKPSNTKVDKKVEPKSCDKTHTCPPCPAPELLGGPSVFLFPPKPKDTLMISRTPEVTCVVVDVSHEDPEVKINWYVDGVEVHNAKTKPREEQYNSTYRVVSVLTVLHQDWLNGKEYKCKVSNKALPAPIENTISKAKGQPREPQMYTLPPSRDELTKNQVSLTCLVKGFYPSDIAVEWESNGQPENNYKTTPPVLDSDGSFFLYSKLTVDKSRWQQGNVFSCSVMHEALHNHYTQKSLSLSPGK	binds	0.5 x			
ch4-4-20 K246N, Q419R, P396L (antibody) heavy: ASTKGPSVFPLAPSSKSTSGGTAALGCLVKDYFPEPVTVSWNSGALTSGVHTFPAVLQSSGLYSLSSVVTVPSSSLGTQTYICNVNHKPSNTKVDKKVEPKSCDKTHTCPPCPAPELLGGPSVFLFPPNPKDTLMISRTPEVTCVVVDVSHEDPEVKFNWYVDGVEVHNAKTKPREEQYNSTYRVVSVLTVLHQDWLNGKEYKCKVSNKALPAPIEKTISKAKGQPREPQVYTLPPSRDELTKNQVSLTCLVKGFYPSDIAVEWESNGQPENNYKTTPLVLDSDGSFFLYSKLTVDKSRWQRGNVFSCSVMHEALHNHYTQKSLSLSPGK		1.1 x	4.8 x		
ch4-4-20 F275L, Q362H, N384K, P396L (antibody) heavy: ASTKGPSVFPLAPSSKSTSGGTAALGCLVKDYFPEPVTVSWNSGALTSGVHTFPAVLQSSGLYSLSSVVTVPSSSLGTQTYICNVNHKPSNTKVDKKVEPKSCDKTHTCPPCPAPELLGGPSVFLFPPKPKDTLMISRTPEVTCVVVDVSHEDPEVKLNWYVDGVEVHNAKTKPREEQYNSTYRVVSVLTVLHQDWLNGKEYKCKVSNKALPAPIEKTISKAKGQPREPQVYTLPPSRDELTKNHVSLTCLVKGFYPSDIAVEWESKGQPENNYKTTPLVLDSDGSFFLYSKLTVDKSRWQQGNVFSCSVMHEALHNHYTQKSLSLSPGK		2.2 x	3.7 x		
ch4-4-20 K290T, N390I, P396L (antibody) heavy: ASTKGPSVFPLAPSSKSTSGGTAALGCLVKDYFPEPVTVSWNSGALTSGVHTFPAVLQSSGLYSLSSVVTVPSSSLGTQTYICNVNHKPSNTKVDKKVEPKSCDKTHTCPPCPAPELLGGPSVFLFPPKPKDTLMISRTPEVTCVVVDVSHEDPEVKFNWYVDGVEVHNAKTTPREEQYNSTYRVVSVLTVLHQDWLNGKEYKCKVSNKALPAPIEKTISKAKGQPREPQVYTLPPSRDELTKNQVSLTCLVKGFYPSDIAVEWESNGQPENIYKTTPLVLDSDGSFFLYSKLTVDKSRWQQGNVFSCSVMHEALHNHYTQKSLSLSPGK		2.8 x	6.1 x		
ch4-4-20 K222N, T335N, K370E, A378V, T394M (antibody) heavy: ASTKGPSVFPLAPSSKSTSGGTAALGCLVKDYFPEPVTVSWNSGALTSGVHTFPAVLQSSGLYSLSSVVTVPSSSLGTQTYICNVNHKPSNTKVDKKVEPKSCDNTHTCPPCPAPELLGGPSVFLFPPKPKDTLMISRTPEVTCVVVDVSHEDPEVKFNWYVDGVEVHNAKTKPREEQYNSTYRVVSVLTVLHQDWLNGKEYKCKVSNKALPAPIEKNISKAKGQPREPQVYTLPPSRDELTKNQVSLTCLVEGFYPSDIVVEWESNGQPENNYKTMPPVLDSDGSFFLYSKLTVDKSRWQQGNVFSCSVMHEALHNHYTQKSLSLSPGK		1 x	7 x		
ch4-4-20 K326I, S408N, P396L (antibody) heavy: ASTKGPSVFPLAPSSKSTSGGTAALGCLVKDYFPEPVTVSWNSGALTSGVHTFPAVLQSSGLYSLSSVVTVPSSSLGTQTYICNVNHKPSNTKVDKKVEPKSCDKTHTCPPCPAPELLGGPSVFLFPPKPKDTLMISRTPEVTCVVVDVSHEDPEVKFNWYVDGVEVHNAKTKPREEQYNSTYRVVSVLTVLHQDWLNGKEYKCKVSNIALPAPIEKTISKAKGQPREPQVYTLPPSRDELTKNQVSLTCLVKGFYPSDIAVEWESNGQPENNYKTTPLVLDSDGSFFLYNKLTVDKSRWQQGNVFSCSVMHEALHNHYTQKSLSLSPGK		4 x	9.3 x		
ch4-4-20 P247L, A431V, S442F (antibody) heavy: ASTKGPSVFPLAPSSKSTSGGTAALGCLVKDYFPEPVTVSWNSGALTSGVHTFPAVLQSSGLYSLSSVVTVPSSSLGTQTYICNVNHKPSNTKVDKKVEPKSCDKTHTCPPCPAPELLGGPSVFLFPPKLKDTLMISRTPEVTCVVVDVSHEDPEVKFNWYVDGVEVHNAKTKPREEQYNSTYRVVSVLTVLHQDWLNGKEYKCKVSNKALPAPIEKTISKAKGQPREPQVYTLPPSRDELTKNQVSLTCLVKGFYPSDIAVEWESNGQPENNYKTTPPVLDSDGSFFLYSKLTVDKSRWQQGNVFSCSVMHEVLHNHYTQKSLFLSPGK	binds				1 x
ch4-4-20 K334E, T359N, T366S, Q386R (antibody) heavy: ASTKGPSVFPLAPSSKSTSGGTAALGCLVKDYFPEPVTVSWNSGALTSGVHTFPAVLQSSGLYSLSSVVTVPSSSLGTQTYICNVNHKPSNTKVDKKVEPKSCDKTHTCPPCPAPELLGGPSVFLFPPKPKDTLMISRTPEVTCVVVDVSHEDPEVKFNWYVDGVEVHNAKTKPREEQYNSTYRVVSVLTVLHQDWLNGKEYKCKVSNKALPAPIEETISKAKGQPREPQVYTLPPSRDELNKNQVSLSCLVKGFYPSDIAVEWESNGRPENNYKTTPPVLDSDGSFFLYSKLTVDKSRWQQGNVFSCSVMHEALHNHYTQKSLSLSPGK	binds	1 x			
ch4-4-20 K246R, S298N, I377F (antibody) heavy: ASTKGPSVFPLAPSSKSTSGGTAALGCLVKDYFPEPVTVSWNSGALTSGVHTFPAVLQSSGLYSLSSVVTVPSSSLGTQTYICNVNHKPSNTKVDKKVEPKSCDKTHTCPPCPAPELLGGPSVFLFPPRPKDTLMISRTPEVTCVVVDVSHEDPEVKFNWYVDGVEVHNAKTKPREEQYNNTYRVVSVLTVLHQDWLNGKEYKCKVSNKALPAPIEKTISKAKGQPREPQVYTLPPSRDELTKNQVSLTCLVKGFYPSDFAVEWESNGQPENNYKTTPPVLDSDGSFFLYSKLTVDKSRWQQGNVFSCSVMHEALHNHYTQKSLSLSPGK		1 x	5 x		
ch4-4-20 K290E, V369A, T393A, P396L (antibody) heavy: ASTKGPSVFPLAPSSKSTSGGTAALGCLVKDYFPEPVTVSWNSGALTSGVHTFPAVLQSSGLYSLSSVVTVPSSSLGTQTYICNVNHKPSNTKVDKKVEPKSCDKTHTCPPCPAPELLGGPSVFLFPPKPKDTLMISRTPEVTCVVVDVSHEDPEVKFNWYVDGVEVHNAKTEPREEQYNSTYRVVSVLTVLHQDWLNGKEYKCKVSNKALPAPIEKTISKAKGQPREPQVYTLPPSRDELTKNQVSLTCLAKGFYPSDIAVEWESNGQPENNYKATPLVLDSDGSFFLYSKLTVDKSRWQQGNVFSCSVMHEALHNHYTQKSLSLSPGK		1.3 x	6.7 x		

Results, then the binder that gave them:

binding result [1]	fold increase vs WT [2]	fold increase vs WT [1]	fold decrease vs WT [1]	fold vs WT [2]	Binder
	1 x	9 x			ch4-4-20 N315I, V379M, T394M (antibody) heavy: ASTKGPSVFPLAPSSKSTSGGTAALGCLVKDYFPEPVTVSWNSGALTSGVHTFPAVLQSSGLYSLSSVVTVPSSSLGTQTYICNVNHKPSNTKVDKKVEPKSCDKTHTCPPCPAPELLGGPSVFLFPPKPKDTLMISRTPEVTCVVVDVSHEDPEVKFNWYVDGVEVHNAKTKPREEQYNSTYRVVSVLTVLHQDWLIGKEYKCKVSNKALPAPIEKTISKAKGQPREPQVYTLPPSRDELTKNQVSLTCLVKGFYPSDIAMEWESNGQPENNYKTMPPVLDSDGSFFLYSKLTVDKSRWQQGNVFSCSVMHEALHNHYTQKSLSLSPGK
	0.75 x		0.25 x		ch4-4-20 P247L, A330T, S440G (antibody) heavy: ASTKGPSVFPLAPSSKSTSGGTAALGCLVKDYFPEPVTVSWNSGALTSGVHTFPAVLQSSGLYSLSSVVTVPSSSLGTQTYICNVNHKPSNTKVDKKVEPKSCDKTHTCPPCPAPELLGGPSVFLFPPKLKDTLMISRTPEVTCVVVDVSHEDPEVKFNWYVDGVEVHNAKTKPREEQYNSTYRVVSVLTVLHQDWLNGKEYKCKVSNKALPTPIEKTISKAKGQPREPQVYTLPPSRDELTKNQVSLTCLVKGFYPSDIAVEWESNGQPENNYKTTPPVLDSDGSFFLYSKLTVDKSRWQQGNVFSCSVMHEALHNHYTQKGLSLSPGK
	1.75 x	1.5 x			ch4-4-20 P244H, L358M, V379M, N384K, V397M (antibody) heavy: ASTKGPSVFPLAPSSKSTSGGTAALGCLVKDYFPEPVTVSWNSGALTSGVHTFPAVLQSSGLYSLSSVVTVPSSSLGTQTYICNVNHKPSNTKVDKKVEPKSCDKTHTCPPCPAPELLGGPSVFLFHPKPKDTLMISRTPEVTCVVVDVSHEDPEVKFNWYVDGVEVHNAKTKPREEQYNSTYRVVSVLTVLHQDWLNGKEYKCKVSNKALPAPIEKTISKAKGQPREPQVYTLPPSRDEMTKNQVSLTCLVKGFYPSDIAMEWESKGQPENNYKTTPPMLDSDGSFFLYSKLTVDKSRWQQGNVFSCSVMHEALHNHYTQKSLSLSPGK
	3 x	2.5 x			ch4-4-20 P247L, I253N, K334N (antibody) heavy: ASTKGPSVFPLAPSSKSTSGGTAALGCLVKDYFPEPVTVSWNSGALTSGVHTFPAVLQSSGLYSLSSVVTVPSSSLGTQTYICNVNHKPSNTKVDKKVEPKSCDKTHTCPPCPAPELLGGPSVFLFPPKLKDTLMNSRTPEVTCVVVDVSHEDPEVKFNWYVDGVEVHNAKTKPREEQYNSTYRVVSVLTVLHQDWLNGKEYKCKVSNKALPAPIENTISKAKGQPREPQVYTLPPSRDELTKNQVSLTCLVKGFYPSDIAVEWESNGQPENNYKTTPPVLDSDGSFFLYSKLTVDKSRWQQGNVFSCSVMHEALHNHYTQKSLSLSPGK
	1.5 x	5 x			ch4-4-20 K326Q, K334E, T359N, T366S (antibody) heavy: ASTKGPSVFPLAPSSKSTSGGTAALGCLVKDYFPEPVTVSWNSGALTSGVHTFPAVLQSSGLYSLSSVVTVPSSSLGTQTYICNVNHKPSNTKVDKKVEPKSCDKTHTCPPCPAPELLGGPSVFLFPPKPKDTLMISRTPEVTCVVVDVSHEDPEVKFNWYVDGVEVHNAKTKPREEQYNSTYRVVSVLTVLHQDWLNGKEYKCKVSNQALPAPIEETISKAKGQPREPQVYTLPPSRDELNKNQVSLSCLVKGFYPSDIAVEWESNGQPENNYKTTPPVLDSDGSFFLYSKLTVDKSRWQQGNVFSCSVMHEALHNHYTQKSLSLSPGK

— patent US20080112961A1 (MacroGenics, published 2008)
